Experimental data from patent publication US20230357364A1 (INTERNATIONAL AIDS VACCINE INITIATIVE, published 2023).

Target: human insulin (human, UniProt P01308 25-54; P01308 90-110)
Test: polyreactivity ELISA

Sequence of human insulin (P01308 25-54 limits assumed, chain 1 of 2): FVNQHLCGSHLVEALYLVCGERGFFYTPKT
Sequence of human insulin (P01308 90-110 limits assumed, chain 2 of 2): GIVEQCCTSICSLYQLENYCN

Binder	binding result
L6.P4A3.1 (antibody, V domains shown) VH: QVQLVQSGAEVKKPGSSVKVSCKASGGIFSSSAISWVRQAPGQGLEWMGGIIPILDISNYAQKFQGRVTITADKSTSTAFMELSSLRSEDTAVYYCALTNQWDLLVYWGQGTLVTVSS VL: EIVLTQSPGTLSLSPGERATLSCRASQRVSSSYLAWYQQKPGQAPRLLIYGAESRATGIPDRFSGSGSGTDFTLTISRLEPEDFAVYYCQHYGSSLWTFGQGTKLEIK	no binding
L6.P4A3.5 (antibody, V domains shown) VH: QVQLVQSGAEVKKPGSSVKVSCKAVGGTFSSSAIYWVRQAPGQGLEWMGGIIPILDIANYAQKFQGRVTITADKSTSTAFMELSSLRSEDTAVYYCALRNQWDLVVYWGQGTLVTVSS VL: EIVLTQSPGTLSLSPGERATLSCHASQSVSSSYLAWYQQKPGQAPRLLIYGAESRATGIPDRFSGSGSGTDFTLTISRLEPEDFAVYYCQHYGSSTWTFGQGTKLEIK	no binding
L6.P4A3.7 (antibody, V domains shown) VH: QVQLVQSGAEVKKPGSSVKVSCKASGGIFSSSAISWVRQAPGQGLEWMGGIIPILDYTNYAQKFQGRVTITADKSTSTAFMELSSLRSEDTAVYYCALRNQWDLLVYWGQGTLVTVSS VL: EIVLTQSPGTLSLSPGERATLSCRASQEVSSSYLAWYQQKPGQAPRLLIYGAESRATGIPDRFSGSGSGTDFTLTISRLEPEDFAVYYCQHYGSSAWTFGQGTKLEIK	no binding
L6.P4A3.9 (antibody, V domains shown) VH: QVQLVQSGAEVKKPGSSVKVSCKSSGGTFSSSAYSWVRQAPGQGLEWMGTIIPILDITNYAQKFQGRVTITADKSTSTAFMELSSLRSEDTAVYYCAQRNQWDLIVYWGQGTLVTVSS VL: EIVLTQSPGTLSLSPGERATLSCRASQWVSSSYIAWYQQKPGQAPRLLIYGAESRATGIPDRFSGSGSGTDFTLTISRLEPEDFAVYYCQHYGSSSWTFGQGTKLEIK	no binding
L6.P4A3.12 (antibody, V domains shown) VH: QVQLVQSGAEVKKPGSSVKVSCKASGGLFSSSAISWVRQAPGQGLEWMGGIIPILDITNYAQKFQGRVTITADKSTSTAFMELSSLRSEDTAVYYCALTNQWDLLVYWGQGTLVTVSS VL: not shown	no binding
L6.P4A3.3 (antibody, V domains shown) VH: QVQLVQSGAEVKKPGSSVKVSCKAPGGTFSSSAISWVRQAPGQGLEWMGGIIPILDITHYAQKFQGRVTITADKSTSTAFMELSSLRSEDTAVYYCALRNQWDLLVYWGQGTLVTVSS VL: EIVLTQSPGTLSLSPGERATLSCRASQDVSSSYLAWYQQKPGQAPRLLIYGAESRATGIPDRFSGSGSGTDFTLTISRLEPEDFAVYYCQHYGSSEWTFGQGTKLEIK	no binding
L6.P4A3.8 (antibody, V domains shown) VH: QVQLVQSGAEVKKPGSSVKVSCKVSGGTFSSSAISWVRQAPGQGLEWMGKIIPILDITNYAQKFQGRVTITADKSTSTAFMELSSLRSEDTAVYYCALRNQWDLLVYWGQGTLVTVSS VL: EIVLTQSPGTLSLSPGERATLSCRASQSVSSHYLAWYQQKPGQAPRLLIYGAESRATGIPDRFSGSGSGTDFTLTISRLEPEDFAVYYCQHYGSSPWTFGQGTKLEIK	no binding
L6.P4A3.b (antibody, V domains shown) VH: QVQLVQSGAEVKKPGSSVKVSCKAPGGTFSSSAISWVRQAPGQGLEWMGGIIPILDITTYAQKFQGRVTITADKSTSTAFMELSSLRSEDTAVYYCALRNQWDLLIYWGQGTLVTVSS VL: EIVLTQSPGTLSLSPGERATLSCRASQSVSSHYLAWYQQKPGQAPRLLIYGASSRYTGIPDRFSGSGSGTDFTLTISRLEPEDFAVYYCQHYGSSHWTFGQGTKLEIK	no binding
L6.P4A3.2 (antibody, V domains shown) VH: QVQLVQSGAEVKKPGSSVKVSCKAPGGTFSSSAISWVRQAPGQGLEWMGTIIPILDITNYAQKFQGRVTITADKSTSTAFMELSSLRSEDTAVYYCAQRNQWDLLVYWGQGTLVTVSS VL: EIVLTQSPGTLSLSPGERATLSCRASQSVSASYLAWYQQKPGQAPRLLIYGAESRATGIPDRFSGSGSGTDFTLTISRLEPEDFAVYYCQHYGSSRWTFGQGTKLEIK	no binding
